Laboratory results as given in patent US20180371451A1 (BOARD OF TRUSTEES OF THE UNIVERSITY OF ILLINOIS, published 2018).

Legend:
Assay in all cases: specificity test of the expressed monobodies (method not named)
[1] = biological target: human Cyclin-Dependent Kinase 2 (human, UniProt P24941 1-298)
[2] = biological target: BSA (UniProt P02769 25-607)
[3] = biological target: T1, CDC34 (UniProt P49427 1-236, limits assumed)
T1 sequence (looked up): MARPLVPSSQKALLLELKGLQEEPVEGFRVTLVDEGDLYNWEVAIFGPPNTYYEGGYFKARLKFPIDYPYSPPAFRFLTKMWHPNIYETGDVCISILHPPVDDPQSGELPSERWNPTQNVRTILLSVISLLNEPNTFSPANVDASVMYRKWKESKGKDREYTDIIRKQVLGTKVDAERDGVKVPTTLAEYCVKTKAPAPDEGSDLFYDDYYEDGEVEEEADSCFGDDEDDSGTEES

Measured: binding result

Chain of BSA (P02769 25-607 limits assumed): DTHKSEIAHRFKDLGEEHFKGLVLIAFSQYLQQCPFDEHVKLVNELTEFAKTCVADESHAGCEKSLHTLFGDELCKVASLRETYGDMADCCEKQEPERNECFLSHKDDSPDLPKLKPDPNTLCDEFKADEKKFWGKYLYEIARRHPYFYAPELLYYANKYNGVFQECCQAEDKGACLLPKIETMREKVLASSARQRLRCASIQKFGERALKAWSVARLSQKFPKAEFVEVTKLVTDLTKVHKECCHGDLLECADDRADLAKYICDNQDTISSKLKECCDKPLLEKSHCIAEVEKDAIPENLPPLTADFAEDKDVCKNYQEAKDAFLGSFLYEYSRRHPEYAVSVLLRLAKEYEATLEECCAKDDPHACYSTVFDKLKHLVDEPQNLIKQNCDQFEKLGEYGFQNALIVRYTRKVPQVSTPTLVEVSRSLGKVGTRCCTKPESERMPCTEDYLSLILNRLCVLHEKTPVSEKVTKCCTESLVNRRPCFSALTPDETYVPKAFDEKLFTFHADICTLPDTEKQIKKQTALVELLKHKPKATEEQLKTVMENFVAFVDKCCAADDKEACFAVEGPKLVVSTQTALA

B1: anti-MAP2K5 FN3 monobody clone G4 (designed binder)
chain: MAVSDVPRKLEVVAATPTSLLISWDQDQVYYYRIRYGETGGNSPVQEFTVPGSKSTATISGLKPGVDYTITVYAVTGTSYAYIISINYRI
notes: FN3 (tenth type III domain of fibronectin) monobody from the PExSR selection; It was cloned into the pET14b-SUMO E. coli expression vector (SUMO fusion, purified on His60 resin) for characterisation; also called anti-MAP2K5 clone G4
no binding: [1] | [2] | [3]

B2: anti-MAP2K5 FN3 monobody clone H1 (designed binder)
chain: MAVSDVPRKLEVVAATPTSLLISWDPYWFSGLYYRITYGETGGNSPVQEFTVPGSKSTATISGLKPGVDYTITVYAVTYYSWGYLVGEIISINYRI
notes: FN3 monobody from the PExSR selection; For the specificity test it was expressed as a SUMO fusion from pET14b-SUMO; also called Anti-MAP2K5 H1
no binding: [1] | [2] | [3]
